Paper PMC6797804, “Histone H3K23-specific acetylation by MORF is coupled to H3K14 acylation” (Nature Communications, 2019)

B1: FLAG-MORF F287A: FLAG-tagged MORFN F287A mutant defective in histone H3 binding, expressed in 293T cells (protein, UniProt Q8WYB5 1-716, looked up, variant F287A)
chain: MVKLANPLYTEWILEAIQKIKKQKQRPSEERICHAVSTSHGLDKKTVSEQLELSVQDGSVLKVTNKGLASYKDPDNPGRFSSVKPGTFPKSAKGSRGSCNDLRNVDWNKLLRRAIEGLEEPNGSSLKNIEKYLRSQSDLTSTTNNPAFQQRLRLGAKRAVNNGRLLKDGPQYRVNYGSLDGKGAPQYPSAFPSSLPPVSLLPHEKDQPRADPIPICSFCLGTKESNREKKPEELLSCADCGSSGHPSCLKFCPELTTNVKALRWQCIECKTCSACRVQGRNADNMLACDSCDRGFHMECCDPPLSRMPKGMWICQVCRPKKKGRKLLHEKAAQIKRRYAKPIGRPKNKLKQRLLSVTSDEGSMNAFTGRGSPGRGQKTKVCTTPSSGHAASGKDSSSRLAVTDPTRPGATTKITTTSTYISASTLKVNKKTKGLIDGLTKFFTPSPDGRRSRGEIIDFSKHYRPRKKVSQKQSCTSHVLATGTTQKLKPPPSSLPPPTPISGQSPSSQKSSTATSSPSPQSSSSQCSVPSLSSLTTNSQLKALFDGLSHIYTTQGQSRKKGHPSYAPPKRMRRKTELSSTAKSKAHFFGKRDIRSRFISHSSSSSWGMARGSIFKAIAHFKRTTFLKKHRMLGRLKYKVTPQMGTPSPGKGSLTDGRIKPDQDDDTEIKINIKQESADVNVIGNKDVVTEEDLDVFKQAQELSWEKIECESGVEDC
modifications: residues 1-716 FLAG tag
B2: WT FLAG-MORF: FLAG-tagged wild-type MORFN (residues 1–716 of MORF) expressed in 293T cells (protein, UniProt Q8WYB5 1-716, looked up, fragment)
chain: MVKLANPLYTEWILEAIQKIKKQKQRPSEERICHAVSTSHGLDKKTVSEQLELSVQDGSVLKVTNKGLASYKDPDNPGRFSSVKPGTFPKSAKGSRGSCNDLRNVDWNKLLRRAIEGLEEPNGSSLKNIEKYLRSQSDLTSTTNNPAFQQRLRLGAKRAVNNGRLLKDGPQYRVNYGSLDGKGAPQYPSAFPSSLPPVSLLPHEKDQPRADPIPICSFCLGTKESNREKKPEELLSCADCGSSGHPSCLKFCPELTTNVKALRWQCIECKTCSACRVQGRNADNMLFCDSCDRGFHMECCDPPLSRMPKGMWICQVCRPKKKGRKLLHEKAAQIKRRYAKPIGRPKNKLKQRLLSVTSDEGSMNAFTGRGSPGRGQKTKVCTTPSSGHAASGKDSSSRLAVTDPTRPGATTKITTTSTYISASTLKVNKKTKGLIDGLTKFFTPSPDGRRSRGEIIDFSKHYRPRKKVSQKQSCTSHVLATGTTQKLKPPPSSLPPPTPISGQSPSSQKSSTATSSPSPQSSSSQCSVPSLSSLTTNSQLKALFDGLSHIYTTQGQSRKKGHPSYAPPKRMRRKTELSSTAKSKAHFFGKRDIRSRFISHSSSSSWGMARGSIFKAIAHFKRTTFLKKHRMLGRLKYKVTPQMGTPSPGKGSLTDGRIKPDQDDDTEIKINIKQESADVNVIGNKDVVTEEDLDVFKQAQELSWEKIECESGVEDC
modifications: FLAG tag
notes: FLAG-tagged wild-type MORFN (residues 1–716 of MORF) expressed in 293T cells

Test system: promoters of target genes in 293T cells
Assay: ChIP in transfected 293T cells (FLAG-MORFN WT or F287A)
Assay type: cell-based
Protocol: Chromatin preparation from MEF, U2OS (ATCC HTB-96) and 293T cells were done as previously described. […] Next, 50 μl of Protein G Dynabeads for FLAG ChIP or 25 μl of Protein A Dynabeads was added to each sample and incubated for 4 h at 4 °C. The beads were washed extensively and eluted with 1% SDS and 0.1 M NaHCO3. Cross-linked samples were reversed by heating overnight at 65 °C in the presence of 0.2 M NaCl. Samples were then treated with RNase A and proteinase K for 2 h, and DNA was recovered by phenol-chloroform and ethanol precipitation. Quantitative real-time PCR corrected for primer efficiencies in the linear range were performed using SYBR Green I (Roche) on a LightCycler 480 (Roche).

[1] = corrected for total H3, two independent experiments

Molecule | association with promoters (FLAG ChIP) (compared to WT FLAG-MORF, two independent experiments) | H3K14ac level on promoters (ChIP) [1] | H3K23ac level on promoters (ChIP) [1]
B1 | decreased association | H3K14ac level was unaffected by the mutation | expression of WT FLAG-MORF but not F287A mutant increases H3K23ac level
B2 |  |  | increases H3K23ac level on these promoters
